Experiments:
FGFR3 = FGFR3 (UniProt P22607); test: phosphorylation enrichment, bacterial display (enrichment ratio); higher = better substrate or ligand; peptides without Tyr show the background
Jak2 = Jak2 (UniProt O60674); test: as above
Fer (mouse) = test: as above
Hck = Hck (UniProt P08631); test: as above
Fes = Fes (UniProt P07332); test: as above
MERTK = MERTK (UniProt Q12866); test: as above
AncSZ = test: as above
c-Src = test: as above
EPHB1 = EPHB1 (UniProt P54762); test: as above
Fyn = Fyn (UniProt P06241); test: as above
Fyn, sequence (P06241 whole entry, looked up): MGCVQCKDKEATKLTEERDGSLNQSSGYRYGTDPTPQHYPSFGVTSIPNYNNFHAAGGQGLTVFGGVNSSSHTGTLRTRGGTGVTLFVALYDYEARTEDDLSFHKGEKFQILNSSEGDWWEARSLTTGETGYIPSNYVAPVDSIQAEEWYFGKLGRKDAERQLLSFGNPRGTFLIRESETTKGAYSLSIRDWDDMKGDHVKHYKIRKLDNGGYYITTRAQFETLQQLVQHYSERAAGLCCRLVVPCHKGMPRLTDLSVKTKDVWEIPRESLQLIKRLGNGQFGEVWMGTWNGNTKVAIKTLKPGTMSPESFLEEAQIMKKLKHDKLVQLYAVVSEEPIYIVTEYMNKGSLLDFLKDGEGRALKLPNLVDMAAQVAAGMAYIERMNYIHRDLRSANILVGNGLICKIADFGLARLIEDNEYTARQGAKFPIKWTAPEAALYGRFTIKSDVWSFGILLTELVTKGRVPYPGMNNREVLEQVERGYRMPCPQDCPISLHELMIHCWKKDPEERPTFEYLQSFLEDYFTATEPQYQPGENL

EPHB2 = EPHB2 (UniProt P29323); test: as above
c-Abl (mouse) = test: as above
FGFR1 = FGFR1 (UniProt P11362); test: as above
SHP2-C SH2 = test: SH2 binding enrichment of the phosphorylated peptide, bacterial display (enrichment ratio); higher = better substrate or ligand; peptides without Tyr show the background
c-Src SH2 = test: as above
Grb2 SH2 = Grb2 SH2 (UniProt P62993); test: as above
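Wherever SH2 binding enrichment of the phosphorylated peptide, bacterial display is given: peptide library displayed on the E. coli surface as eCPX fusions, selected cells deep-sequenced, score is each peptide's frequency after selection divided by its frequency in the input.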
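Wherever phosphorylation enrichment, bacterial display is given: 11-residue human phosphosite peptides and single-mutation variants displayed on the E. coli surface, counted by deep sequencing, each peptide's frequency after selection divided by its frequency in the unselected input library; frequency after pTyr selection over input frequency; kinase dosed for 20-30% of maximal phosphorylation in three min.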

FGFR3, sequence (P22607 whole entry, looked up): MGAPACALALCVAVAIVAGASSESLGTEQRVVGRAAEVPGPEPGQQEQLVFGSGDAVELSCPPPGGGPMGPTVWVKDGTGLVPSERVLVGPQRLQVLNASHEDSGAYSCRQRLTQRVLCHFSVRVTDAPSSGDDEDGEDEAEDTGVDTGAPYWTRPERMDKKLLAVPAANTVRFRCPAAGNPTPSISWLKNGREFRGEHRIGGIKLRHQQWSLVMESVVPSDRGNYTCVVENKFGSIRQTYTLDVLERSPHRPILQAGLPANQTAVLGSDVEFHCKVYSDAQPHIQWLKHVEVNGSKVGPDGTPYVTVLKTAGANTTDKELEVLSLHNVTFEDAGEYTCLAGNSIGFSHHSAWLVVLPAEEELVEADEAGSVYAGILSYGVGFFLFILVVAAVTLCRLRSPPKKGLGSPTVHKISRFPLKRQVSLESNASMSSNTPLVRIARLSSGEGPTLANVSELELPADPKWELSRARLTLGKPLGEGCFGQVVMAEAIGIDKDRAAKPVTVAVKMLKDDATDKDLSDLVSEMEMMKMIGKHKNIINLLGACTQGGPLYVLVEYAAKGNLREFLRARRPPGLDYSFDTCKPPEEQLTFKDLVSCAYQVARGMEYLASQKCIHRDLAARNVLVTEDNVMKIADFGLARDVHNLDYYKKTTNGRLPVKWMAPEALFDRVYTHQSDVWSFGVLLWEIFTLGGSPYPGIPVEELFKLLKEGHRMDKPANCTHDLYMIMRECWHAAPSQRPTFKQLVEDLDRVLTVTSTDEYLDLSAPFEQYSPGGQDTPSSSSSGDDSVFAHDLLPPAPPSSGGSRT
MERTK, sequence (Q12866 whole entry, looked up): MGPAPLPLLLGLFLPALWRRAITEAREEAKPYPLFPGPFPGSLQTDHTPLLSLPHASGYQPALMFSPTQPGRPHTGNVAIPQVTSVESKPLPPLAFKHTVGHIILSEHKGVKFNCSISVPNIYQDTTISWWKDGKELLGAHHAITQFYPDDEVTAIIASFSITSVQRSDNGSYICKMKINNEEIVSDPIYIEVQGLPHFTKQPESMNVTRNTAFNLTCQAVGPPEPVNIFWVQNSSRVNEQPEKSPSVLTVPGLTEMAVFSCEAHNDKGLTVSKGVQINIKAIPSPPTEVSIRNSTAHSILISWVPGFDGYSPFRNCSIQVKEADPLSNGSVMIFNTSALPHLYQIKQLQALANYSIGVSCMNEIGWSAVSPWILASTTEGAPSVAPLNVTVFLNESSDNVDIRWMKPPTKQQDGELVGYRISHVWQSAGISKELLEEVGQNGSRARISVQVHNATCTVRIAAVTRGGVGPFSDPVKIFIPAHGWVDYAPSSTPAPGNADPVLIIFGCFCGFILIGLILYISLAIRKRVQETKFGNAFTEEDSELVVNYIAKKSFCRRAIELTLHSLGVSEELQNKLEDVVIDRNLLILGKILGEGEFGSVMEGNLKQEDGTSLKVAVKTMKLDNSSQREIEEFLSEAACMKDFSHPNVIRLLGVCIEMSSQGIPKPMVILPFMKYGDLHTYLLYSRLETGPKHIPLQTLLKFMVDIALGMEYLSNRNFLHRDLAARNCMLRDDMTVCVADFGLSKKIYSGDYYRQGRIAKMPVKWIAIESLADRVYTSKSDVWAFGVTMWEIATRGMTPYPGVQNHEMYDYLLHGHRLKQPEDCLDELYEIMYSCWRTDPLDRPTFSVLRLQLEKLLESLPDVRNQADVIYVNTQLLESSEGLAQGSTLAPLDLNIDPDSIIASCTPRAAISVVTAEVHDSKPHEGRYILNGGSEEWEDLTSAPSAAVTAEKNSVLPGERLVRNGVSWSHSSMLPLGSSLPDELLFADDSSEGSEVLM
Fes, sequence (P07332 whole entry, looked up): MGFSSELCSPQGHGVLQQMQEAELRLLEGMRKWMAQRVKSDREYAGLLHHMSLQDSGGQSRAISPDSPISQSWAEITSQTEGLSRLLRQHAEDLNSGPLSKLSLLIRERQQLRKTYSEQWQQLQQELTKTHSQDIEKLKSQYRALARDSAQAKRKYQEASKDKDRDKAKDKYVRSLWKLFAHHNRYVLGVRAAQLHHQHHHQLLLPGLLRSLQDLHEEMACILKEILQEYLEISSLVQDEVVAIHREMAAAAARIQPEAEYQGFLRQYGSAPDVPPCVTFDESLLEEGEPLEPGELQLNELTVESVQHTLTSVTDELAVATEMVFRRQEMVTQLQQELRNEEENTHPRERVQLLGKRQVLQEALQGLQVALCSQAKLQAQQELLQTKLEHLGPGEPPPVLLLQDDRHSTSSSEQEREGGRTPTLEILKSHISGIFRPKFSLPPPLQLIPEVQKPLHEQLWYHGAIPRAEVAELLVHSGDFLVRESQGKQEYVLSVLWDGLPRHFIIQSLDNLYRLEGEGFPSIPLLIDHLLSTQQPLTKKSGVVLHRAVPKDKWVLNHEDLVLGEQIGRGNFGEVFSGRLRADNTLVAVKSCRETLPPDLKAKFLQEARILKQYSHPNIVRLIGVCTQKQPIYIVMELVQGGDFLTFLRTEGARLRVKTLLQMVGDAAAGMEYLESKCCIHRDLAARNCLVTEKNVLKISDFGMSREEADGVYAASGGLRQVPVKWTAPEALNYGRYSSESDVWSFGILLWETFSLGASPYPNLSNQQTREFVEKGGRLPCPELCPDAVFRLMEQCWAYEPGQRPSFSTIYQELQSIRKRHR
Hck, sequence (P08631 whole entry, looked up): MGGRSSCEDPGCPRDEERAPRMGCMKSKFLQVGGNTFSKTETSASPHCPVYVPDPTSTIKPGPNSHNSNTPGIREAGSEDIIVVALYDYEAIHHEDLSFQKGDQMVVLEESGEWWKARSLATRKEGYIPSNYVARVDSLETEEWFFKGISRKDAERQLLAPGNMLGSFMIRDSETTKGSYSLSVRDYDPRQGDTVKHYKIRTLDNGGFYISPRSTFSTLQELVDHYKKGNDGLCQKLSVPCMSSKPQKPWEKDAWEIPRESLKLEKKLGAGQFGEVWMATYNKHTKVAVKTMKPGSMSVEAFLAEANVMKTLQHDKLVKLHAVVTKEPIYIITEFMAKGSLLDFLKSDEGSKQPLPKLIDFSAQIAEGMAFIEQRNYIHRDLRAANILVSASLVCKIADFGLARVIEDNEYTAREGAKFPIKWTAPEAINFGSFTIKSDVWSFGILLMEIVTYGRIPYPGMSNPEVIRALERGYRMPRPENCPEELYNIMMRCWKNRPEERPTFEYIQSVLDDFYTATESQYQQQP
Jak2, sequence (O60674 whole entry, looked up): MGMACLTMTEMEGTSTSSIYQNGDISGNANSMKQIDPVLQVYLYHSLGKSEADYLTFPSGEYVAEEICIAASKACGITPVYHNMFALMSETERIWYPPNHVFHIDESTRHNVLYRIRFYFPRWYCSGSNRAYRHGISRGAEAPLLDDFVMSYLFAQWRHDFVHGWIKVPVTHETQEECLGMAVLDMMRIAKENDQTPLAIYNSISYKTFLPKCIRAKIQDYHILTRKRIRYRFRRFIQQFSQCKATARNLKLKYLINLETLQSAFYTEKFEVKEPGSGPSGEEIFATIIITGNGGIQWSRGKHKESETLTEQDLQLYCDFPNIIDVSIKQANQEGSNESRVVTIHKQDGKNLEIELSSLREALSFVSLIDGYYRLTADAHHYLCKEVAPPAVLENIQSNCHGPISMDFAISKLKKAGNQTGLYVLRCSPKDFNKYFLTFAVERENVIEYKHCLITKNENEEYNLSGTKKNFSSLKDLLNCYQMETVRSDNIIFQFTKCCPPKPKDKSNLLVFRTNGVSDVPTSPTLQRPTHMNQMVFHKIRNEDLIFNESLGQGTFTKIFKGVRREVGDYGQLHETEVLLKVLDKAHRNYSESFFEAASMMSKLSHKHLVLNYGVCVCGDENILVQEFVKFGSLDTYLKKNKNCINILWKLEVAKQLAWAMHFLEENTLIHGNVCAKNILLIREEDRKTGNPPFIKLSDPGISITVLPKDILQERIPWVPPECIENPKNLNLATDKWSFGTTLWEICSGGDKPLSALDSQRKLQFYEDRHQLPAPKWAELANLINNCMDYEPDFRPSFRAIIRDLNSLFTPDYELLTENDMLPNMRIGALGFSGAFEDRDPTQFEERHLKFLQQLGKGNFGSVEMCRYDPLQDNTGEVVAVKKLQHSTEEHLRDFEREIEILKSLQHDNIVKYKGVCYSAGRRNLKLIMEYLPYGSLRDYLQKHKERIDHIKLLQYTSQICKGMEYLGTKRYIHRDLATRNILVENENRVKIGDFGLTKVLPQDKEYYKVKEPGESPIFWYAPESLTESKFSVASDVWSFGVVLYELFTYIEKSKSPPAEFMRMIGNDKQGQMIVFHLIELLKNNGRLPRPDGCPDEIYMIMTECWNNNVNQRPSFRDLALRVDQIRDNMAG

Row | Sequence | SH2 binding enrichment (SHP2-C SH2) | SH2 binding enrichment (c-Src SH2) | SH2 binding enrichment (Grb2 SH2) | phosphorylation enrichment (FGFR3) | phosphorylation enrichment (Jak2) | phosphorylation enrichment (Fer (mouse)) | phosphorylation enrichment (Hck) | phosphorylation enrichment (Fes) | phosphorylation enrichment (MERTK) | phosphorylation enrichment (AncSZ) | phosphorylation enrichment (c-Src) | phosphorylation enrichment (EPHB1) | phosphorylation enrichment (Fyn) | phosphorylation enrichment (EPHB2) | phosphorylation enrichment (c-Abl (mouse)) | phosphorylation enrichment (FGFR1)
1 | DCAAIYGSEPE [AKR1A1_Y50_N52S] | 0.553 | 0.633 | 0.927 | 0.726 | 1.46 | 0.599 | 0.844 | 1.34 | 0.474 | 1.14 | 1.4 | 0.572 | 0.968 | 0.578 | 0.791 | 0.453
2 | DKWFLYKMRDI [CPS1_Y879] | 0.661 | 0.373 | 0.838 | 0.77 | 1.32 | 0.505 | 0.469 | 1.36 | 0.311 | 1.14 | 0.403 | 0.671 | 0.444 | 0.57 | 0.963 | 0.466
3 | VNLVLYLSIAK [FBXO15_Y496] | 0.388 | 0.426 | 0.829 | 0.867 | 1.28 | 0.443 | 0.527 | 1.73 | 0.572 | 1.13 | 0.512 | 0.438 | 0.462 | 0.628 | 1.25 | 0.581
4 | AEPPDYSPVTH [ADGRG2_Y285] | 0.611 | 0.477 | 0.836 | 0.786 | 0.836 | 0.764 | 0.598 | 1.06 | 0.491 | 1.66 | 0.417 | 0.817 | 0.542 | 0.582 | 0.792 | 0.54
5 | EEEFFYEKAIL [BCCIP_Y257] | 0.685 | 0.655 | 0.981 | 0.895 | 1.34 | 5.34 | 0.811 | 1.55 | 0.847 | 1.93 | 0.89 | 0.622 | 0.633 | 0.648 | 1.1 | 0.671
6 | FGSVDYWEKFF [EEF1AKNMT_Y16] | 0.759 | 0.493 | 0.749 | 1.05 | 1.1 | 0.506 | 0.55 | 1.23 | 0.457 | 1.16 | 0.523 | 0.633 | 0.499 | 0.587 | 0.841 | 0.909
7 | LDPDSYNMFEN [FOXC1_Y159] | 0.504 | 0.575 | 0.667 | 0.855 | 1.44 | 0.527 | 0.465 | 1.14 | 0.635 | 1.38 | 0.579 | 0.637 | 0.531 | 0.865 | 0.74 | 0.675
8 | DPADRYLTEQC [CDKL5_Y286] | 0.747 | 0.507 | 0.918 | 0.731 | 0.947 | 0.53 | 0.506 | 1.12 | 0.446 | 0.986 | 0.523 | 0.485 | 0.478 | 0.558 | 0.713 | 0.458
9 | VAFVFYKSIGP [ADGRL4_Y302_YF] | 0.874 | 0.553 | 0.897 | 0.781 | 0.868 | 0.595 | 0.424 | 1.39 | 0.422 | 1.2 | 0.407 | 0.663 | 0.501 | 0.571 | 1.04 | 0.543
10 | GTYVIYVRFGG [FLNB_Y1687] | 0.782 | 0.533 | 1.1 | 0.736 | 1.04 | 0.516 | 0.597 | 1.32 | 0.498 | 1.22 | 0.752 | 0.604 | 0.62 | 0.696 | 0.868 | 0.511
11 | VVLEDYLDIKH [CLCNKB_Y138_N143H] | 0.575 | 0.54 | 0.76 | 1.05 | 0.959 | 0.506 | 0.534 | 1.3 | 0.506 | 1.25 | 0.458 | 0.782 | 0.419 | 0.66 | 0.716 | 1.24
12 | RMSRSYPTGLA [ADM_Y52_S50R] | 0.548 | 0.425 | 0.721 | 0.459 | 0.42 | 0.319 | 0.39 | 0.594 | 0.454 | 0.497 | 0.377 | 0.382 | 0.381 | 0.349 | 0.594 | 0.36
13 | RIVTTYIWERE [DNM2_Y463_R465W] | 0.846 | 0.909 | 1.16 | 0.862 | 0.989 | 0.538 | 0.619 | 1.31 | 0.403 | 1.82 | 0.405 | 0.526 | 0.712 | 0.455 | 0.745 | 0.595
14 | AAESTYDKILK [GDNF_Y156_T154S] | 0.672 | 5.23 | 1.08 | 0.586 | 0.682 | 0.418 | 1.75 | 0.886 | 0.401 | 0.681 | 0.719 | 0.463 | 0.76 | 0.508 | 0.563 | 0.391
15 | EQMLEYMEQLQ [CFAP45_Y289] | 0.5 | 0.357 | 0.799 | 0.846 | 1.1 | 0.526 | 0.638 | 0.994 | 0.494 | 1.21 | 0.505 | 0.579 | 0.549 | 0.561 | 0.532 | 0.764
16 | MCVKSYTIHYS [F5_Y2153_Y2149C] | 0.592 | 0.472 | 0.811 | 0.878 | 0.942 | 0.636 | 0.552 | 1.26 | 0.459 | 1.12 | 0.45 | 0.682 | 0.517 | 0.569 | 0.726 | 0.513
17 | PLKALYLQQRL [ATM_Y2969_P2974L] | 1.17 | 0.8 | 1.2 | 0.692 | 0.634 | 0.398 | 0.62 | 1.01 | 0.523 | 0.776 | 0.46 | 0.539 | 0.343 | 0.629 | 0.722 | 0.429

More lines, main results first:

Row | SH2 binding enrichment (SHP2-C SH2) | SH2 binding enrichment (c-Src SH2) | SH2 binding enrichment (Grb2 SH2) | Sequence | phosphorylation enrichment (FGFR3) | phosphorylation enrichment (Jak2) | phosphorylation enrichment (Fer (mouse)) | phosphorylation enrichment (Hck) | phosphorylation enrichment (Fes) | phosphorylation enrichment (MERTK) | phosphorylation enrichment (AncSZ) | phosphorylation enrichment (c-Src) | phosphorylation enrichment (EPHB1) | phosphorylation enrichment (Fyn) | phosphorylation enrichment (EPHB2) | phosphorylation enrichment (c-Abl (mouse)) | phosphorylation enrichment (FGFR1)
18 | 0.929 | 0.473 | 1.01 | HLTNQYMQRVA [PABPC4_Y382] | 0.33 | 0.406 | 0.446 | 0.324 | 0.429 | 0.277 | 0.525 | 0.351 | 0.307 | 0.356 | 0.316 | 1.04 | 0.402
19 | 1.03 | 0.554 | 0.856 | DEQKKYFNAMK [SCN5A_Y1494_E1489D_YF] | 0.474 | 0.952 | 0.437 | 0.419 | 0.883 | 0.448 | 0.68 | 0.548 | 0.374 | 0.394 | 0.428 | 0.815 | 0.592
20 | 0.869 | 0.613 | 0.659 | MYRVQYNSSVD [LRFN1_Y458_Q455R] | 0.715 | 0.68 | 0.403 | 0.435 | 0.876 | 0.375 | 0.785 | 0.411 | 0.487 | 0.435 | 0.437 | 0.629 | 0.433
21 | 0.768 | 0.885 | 0.802 | TLNFFYQQVKS [PTK2_Y148] | 0.849 | 1 | 0.575 | 0.471 | 1.15 | 0.366 | 1.15 | 0.361 | 0.68 | 0.516 | 0.658 | 0.606 | 0.471
22 | 0.686 | 0.634 | 0.861 | RHEASYSSDSE [REPS1_Y116_A113E] | 0.841 | 0.784 | 0.777 | 0.954 | 1.19 | 0.461 | 1.03 | 0.427 | 0.837 | 0.845 | 0.591 | 0.662 | 0.722
23 | 0.704 | 0.555 | 0.838 | SLGKGYFDGGC [MC4R_Y35_S36Y_YF] | 0.611 | 0.889 | 0.35 | 0.429 | 0.924 | 0.389 | 0.922 | 0.481 | 0.452 | 0.377 | 0.529 | 0.842 | 0.434
24 | 0.605 | 1.73 | 0.732 | DPMNTYARPAE [SGMS2_Y24_T21M] | 0.542 | 0.771 | 0.504 | 0.576 | 0.883 | 0.46 | 0.878 | 0.538 | 0.381 | 0.434 | 0.476 | 0.792 | 0.475
25 | 1.29 | 1.05 | 1.14 | LLIVEYAKFGS [RET_Y806_YF] | 1.36 | 1.6 | 1.16 | 1.25 | 1.83 | 0.585 | 1.79 | 1.13 | 5.93 | 1.4 | 1.72 | 1.67 | 0.909
26 | 0.398 | 0.343 | 0.665 | VRKRSYSAGNA [KANK1_Y324] | 0.492 | 0.441 | 0.457 | 0.48 | 0.621 | 0.444 | 0.615 | 0.519 | 0.495 | 0.441 | 0.436 | 0.564 | 0.396
27 | 0.652 | 0.462 | 0.68 | VVQGLYKSMRK [KBTBD2_Y250_P254R] | 0.358 | 0.522 | 0.372 | 0.351 | 0.464 | 0.482 | 0.628 | 0.391 | 0.397 | 0.421 | 0.432 | 0.519 | 0.403
28 | 0.498 | 0.437 | 0.852 | FNDSTYNQQLI [ZPLD1_Y198_YF] | 0.555 | 0.863 | 0.463 | 0.482 | 0.878 | 0.431 | 0.883 | 0.617 | 0.474 | 0.429 | 0.483 | 0.694 | 0.651
29 | 0.606 | 6.76 | 0.82 | LRKQDYQEILD [SLC35G2_Y403] | 0.708 | 0.999 | 0.434 | 0.47 | 1.17 | 0.364 | 0.995 | 0.468 | 0.632 | 0.529 | 0.379 | 0.629 | 0.629
30 | 0.665 | 0.747 | 0.907 | ELQDDYEDMME [SLC4A1_Y8] | 0.718 | 0.956 | 0.549 | 0.659 | 1.07 | 0.451 | 1.16 | 0.415 | 0.646 | 0.542 | 0.558 | 0.56 | 0.566
31 | 0.501 | 0.937 | 1.68 | TPGPNYCPGYN [USH2A_Y463_R464C] | 0.616 | 0.853 | 0.497 | 0.466 | 1.17 | 0.379 | 0.694 | 0.35 | 0.468 | 0.623 | 0.551 | 0.429 | 0.504
32 | 0.369 | 0.787 | 1.62 | PTFENYANSTQ [SLC12A3_Y70_H69N_YF] | 0.539 | 0.895 | 0.52 | 0.766 | 1.08 | 0.572 | 0.853 | 0.391 | 0.542 | 0.437 | 0.711 | 0.531 | 0.615
33 | 0.606 | 0.451 | 0.767 | KLIMECLPYGS [JAK2_Y931_Y931C] | 0.766 | 0.886 | 0.448 | 0.512 | 0.998 | 0.489 | 0.907 | 0.424 | 0.564 | 0.513 | 0.649 | 0.738 | 0.542

From the supplement of paper PMC10065799, “High-throughput profiling of sequence recognition by tyrosine kinases and SH2 domains using bacterial peptide display” (eLife, 2023)
